The text below walks through data of PMC9929924, “Phosphorylation of the receptor protein Pex5p modulates import of proteins into peroxisomes” (Biological Chemistry, 2022).

Numbering of substitutions follows the chain as printed. Ends that are not written are not given here. * marks the point of attachment. FITC = O=C1OC2(c3ccc(O)cc3Oc3cc(O)ccc32)c2ccc(NC(=S)*)cc21

One test concerns Pex5p^2D cells. The experiment in a line: Fluorescence microscopy, peroxisomal import of GFP-tagged proteins in Pex5p^2D-expressing cells. The class given is cell-based, S. cerevisiae. Particulars: GFP-tagged protein, Pex5p^2D-expressing cells; Pex3p-mCherry marker; SD medium, 2% glucose; assessed manually. On the set-up: key to import phenotype category: showed a reduced peroxisomal import and constitute category 1; category 2 characterized by no peroxisomal import; without a noticeable effect on import in Pex5p^2D cells (category 3). The text has this: Query strains were constructed on the basis of an automated mating compatible strain. The query strains contained a peroxisomal marker (Pex3p-mCherry::HIS), a deletion of PEX5 (pex5Δ::NAT) and a plasmid expressing WT or mutant PEX5 (PEX5^WT, PEX5^2D or PEX5^2A). Using an automated mating method ([Cohen and Schuldiner 2011]; [Tong and Boone 2006]), the query strains were crossed with a NOP1pr-N′-GFP-peroxi library ([Dahan et al. 2017]). The NOP1pr-N′-GFP-peroxisomal library is a collection of ∼90 strains containing all the known peroxisomal proteins together with potential peroxisomal proteins and controls, genomically tagged with GFP at their N-terminus and expressed under the generic constitutive SpNOP1 promoter. To perform the manipulations in high-density format we used a RoToR bench top colony arrayer (Singer Instruments). In short: mating was performed on rich medium plates, and selection for diploid cells was performed on SD(MSG)-HIS-URA plates containing Geneticin (200 μg ml^−1) and Nourseothricin (200 μg ml^−1). Sporulation was induced by transferring cells to nitrogen starvation media plates for 7 days. Haploid cells containing the desired mutations were selected by transferring cells to SD-URA-HIS-LYS-ARG-LEU plates containing Geneticin and Nourseothricin (same concentrations as above), alongside the toxic amino acid derivatives Canavanine and Thialysine (Sigma-Aldrich) to select against remaining diploids and select for spores with an α mating type. A similar method was used to generate control, pex5Δ, and pex8Δ strains expressing GFP-Mdh3p (Supplementary Figure 4D), in which the query strain contained a peroxisomal marker (Pex3p-mCherry::NAT) and URA3::GFP-Mdh3p. This query strain was crossed with three strains from the mini peroxisomal deletion library ([Gabay-Maskit et al. 2020]): a control (no deletion), pex5Δ, and pex8Δ strain, all of which contain KAN (Geneticin) resistance.
The yeast collections were visualized using an automated microscopy setup as described previously ([Breker et al. 2013]). In short: cells were transferred from agar plates into 384-well polystyrene plates (Greiner) for growth in liquid media using the RoToR arrayer robot. Liquid cultures were grown in a LiCONiC incubator, overnight at 30 °C in SD-URA-HIS medium. A JANUS liquid handler (PerkinElmer) connected to the incubator was used to dilute the strains to an OD600 of ∼0.2 into plates containing SD medium (6.7 g l^−1 yeast nitrogen base and 2% glucose) supplemented with complete amino acids. Plates were incubated at 30 °C for 4 h. The cultures in the plates were then transferred by the liquid handler into glass-bottom 384-well microscope plates (Matrical Bioscience) coated with Concanavalin A (Sigma-Aldrich). After 20 min, cells were washed three times with SD-Riboflavin complete medium to remove non-adherent cells and to obtain a cell monolayer. The plates were then transferred to the ScanR automated inverted fluorescent microscope system (Olympus) using a robotic swap arm (Hamilton). Images of cells in the 384-well plates were recorded in the same liquid as the washing step at 24 °C using a 60× air lens (NA 0.9) and with an ORCA-ER charge-coupled device camera (Hamamatsu). Images were acquired in two channels: GFP (excitation filter 490/20 nm, emission filter 535/50 nm) and mCherry (excitation filter 572/35 nm, emission filter 632/60 nm). All images were taken at a single focal plane. The same protocol was used to visualize fluorescence signals in GFP-Mdh3p-expressing control, pex5Δ, and pex8Δ strains (Supplementary Figure 4D).

The next test deals with yeast peroxisomes. Particulars: under both glucose and oleate condition; ref Rosenthal et al. 2020; cited from earlier work. The text has this: We classified PTS1-proteins into three different categories according to the observed import phenotypes. […] In contrast, peroxisomal NADP-dependent isocitrate dehydrogenase (Idp3p; Figure 4C) and malate synthase 1 (Mls1p; Figure 4D) belong to category 2 characterized by no peroxisomal import (Supplementary Fi ...

The next test concerns pex8Δ cells. As to conditions: ref Rehling et al. 2000; cited from earlier work. An excerpt:
Among the proteins with reduced peroxisomal import in Pex5p^2D cells (category 1) is Pex8p, an essential component of the import machinery for peroxisomal matrix proteins and required for the biogenesis of functional peroxisomes ([Agne et al. 2003]; [Rehling et al. 2000]), which may raise the question if the reduced import of most PTS1 proteins in Pex5p^2D cells is a consequence of decreased peroxisomal Pex8p levels.

Test [1] has as its target T1, Pex5p wildtype, recombinant His6-tagged (HisPex5p) (S. cerevisiae, UniProt P35056 1-612).
T1 construct: Pex5p, PTS1 receptor of Saccharomyces cerevisiae, UniProtKB P35056, full length; No cleavage of the His tag is described; the native MS mass of the monomer is printed as 71.459 kDa; also called Pex5p^WT; source: E. coli BL21 RIL (DE3), purified (Ni-NTA, MonoQ anion exchange, SEC)
T1 sequence (looked up): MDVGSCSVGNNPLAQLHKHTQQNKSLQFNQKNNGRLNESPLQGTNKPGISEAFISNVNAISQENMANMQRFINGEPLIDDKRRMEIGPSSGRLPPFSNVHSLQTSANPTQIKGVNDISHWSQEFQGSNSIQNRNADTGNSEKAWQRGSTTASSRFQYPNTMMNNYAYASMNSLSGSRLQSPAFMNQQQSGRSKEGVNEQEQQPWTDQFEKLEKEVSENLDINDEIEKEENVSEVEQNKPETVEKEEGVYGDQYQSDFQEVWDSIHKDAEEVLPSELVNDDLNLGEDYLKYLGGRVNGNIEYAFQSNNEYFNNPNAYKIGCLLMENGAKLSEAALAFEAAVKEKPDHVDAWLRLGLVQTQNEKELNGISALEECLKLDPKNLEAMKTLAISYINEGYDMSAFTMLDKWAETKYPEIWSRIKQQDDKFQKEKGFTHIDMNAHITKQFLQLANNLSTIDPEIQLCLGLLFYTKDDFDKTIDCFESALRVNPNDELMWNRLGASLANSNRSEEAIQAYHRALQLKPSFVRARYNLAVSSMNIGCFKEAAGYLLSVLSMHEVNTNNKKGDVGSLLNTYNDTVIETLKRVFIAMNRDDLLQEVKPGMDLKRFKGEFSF
The experiment in a line: fluorescence polarisation; fluorescence anisotropy; 10 nM FITC-labelled peptide, serial dilutions of Pex5p variant 1.5 nM to 6.6 µM; 50 mM HEPES pH 7.5, 150 mM NaCl; one-site binding-saturation fit. As to conditions: both partners purified. In general terms: Fluorescence polarisation rises when a labelled molecule tumbles more slowly, as on binding a larger partner.

Test [2] has as its target T2, Pex5p-S507/523D, recombinant His6-tagged phospho-mimicking mutant (S. cerevisiae, UniProt P35056 1-612, S507D | S523D).
T2 construct: Pex5p, PTS1 receptor of Saccharomyces cerevisiae, UniProtKB P35056, full length, with S507D and S523D; No cleavage of the His tag is described; the native MS mass of the monomer is printed as 71.515 kDa; also called Pex5p^2D; Pex5p-S507D/523D; source: E. coli BL21 RIL (DE3), purified (Ni-NTA, MonoQ anion exchange, SEC)
T2 sequence (looked up): T1 sequence (looked up) with S507D, S523D
The description is as above. Particulars: both partners purified.

Consider “Cat2p: carnitine acetyl-CoA transferase ({FITC}-YNENKRKAKL)”, for which the import phenotype category result in the test on Pex5p^2D cells is given as “category 3”. Besides, the “targeting priority to peroxisomes” value with yeast peroxisomes is reported as “high targeting priority”.
Turning to “Lys1p: saccharopine dehydrogenase ({FITC}-YARVKRSSRL)”, the import phenotype category result with Pex5p^2D cells is listed as “category 3”. Moreover, the “targeting priority to peroxisomes” value in the test with yeast peroxisomes is on record as “high targeting priority”.
“Pcs60p: peroxisomal oxalyl-CoA synthetase, PTS1-protein”: the import phenotype category entry in the test with Pex5p^2D cells is recorded as “category 1”. Moreover, in the test with pex8Δ cells, the subcellular distribution entry is reported as “mislocalization”.

B1: Mdh3p: peroxisomal malate dehydrogenase (protein, UniProt P32419 2-343, looked up)
Malate dehydrogenase, …: VKVAILGASGGVGQPLSLLLKLSPYVSELALYDIRAAEGIGKDLSHINTNSSCVGYDKDSIENTLSNAQVVLIPAGVPRKPGLTRDDLFKMNAGIVKSLVTAVGKFAPNARILVISNPVNSLVPIAVETLKKMGKFKPGNVMGVTNLDLVRAETFLVDYLMLKNPKIGQEQDKTTMHRKVTVIGGHSGETIIPIITDKSLVFQLDKQYEHFIHRVQFGGDEIVKAKQGAGSATLSMAFAGAKFAEEVLRSFHNEKPETESLSAFVYLPGLKNGKKAQQLVGDNSIEYFSLPIVLRNGSVVSIDTSVLEKLSPREEQLVNTAVKELRKNIEKGKSFILDSSKL
For B1, the import phenotype category entry in the test on Pex5p^2D cells is “category 3”. In addition, in the test on yeast peroxisomes, the “targeting priority to peroxisomes” value is recorded as “high targeting priority”.

B2: Cat2p nonapeptide, FITC-YNENKRKAKL (peptide)
peptide: {FITC}-YNENKRKAKL
notes: tyrosine added to the peptide amino-terminus for concentration measurements; the nine carboxy-terminal residues of Cat2p (carnitine acetyl-CoA transferase), S. cerevisiae; An extra N-terminal tyrosine stands before the natural stretch; also called Cat2p peptide; source: synthetic peptide (GenScript)
As a reminder, the Kd is the equilibrium constant for the complex coming apart. With B2, the dissociation constant Kd in test [1] was 116 nM; in test [2], 896 nM.

B3: Pcs60p nonapeptide, FITC-YKSSRNKSKL (peptide)
peptide: {FITC}-YKSSRNKSKL
notes: tyrosine added to the peptide amino-terminus for concentration measurements; the nine carboxy-terminal residues of Pcs60p, S. cerevisiae; An extra N-terminal tyrosine stands before the natural stretch; also called Pcs60p peptide; source: synthetic peptide (GenScript)
For B3, the dissociation constant (Kd) in test [1] is 643 nM.

B4: Lys1p nonapeptide, FITC-YARVKRSSRL (peptide)
peptide: {FITC}-YARVKRSSRL
notes: tyrosine added to the peptide amino-terminus for concentration measurements; the nine carboxy-terminal residues of Lys1p (saccharopine dehydrogenase), S. cerevisiae; An extra N-terminal tyrosine stands before the natural stretch; also called Lys1p peptide; source: synthetic peptide (GenScript)
B4: the values for the dissociation constant (Kd) in test [1] and in test [2] were 88.8 nM and 3690 nM, respectively.

B5: Fox3p: 3-ketoacyl-CoA thiolase, PTS2 import pathway (protein, UniProt P27796 16-417, looked up)
3-ketoacyl-CoA thiolase, …: AMGKGESKRKNSLLEKRPEDVVIVAANRSAIGKGFKGAFKDVNTDYLLYNFLNEFIGRFPEPLRADLNLIEEVACGNVLNVGAGATEHRAACLASGIPYSTPFVALNRQCSSGLTAVNDIANKIKVGQIDIGLALGVESMTNNYKNVNPLGMISSEELQKNREAKKCLIPMGITNENVAANFKISRKDQDEFAANSYQKAYKAKNEGLFEDEILPIKLPDGSICQSDEGPRPNVTAESLSSIRPAFIKDRGTTTAGNASQVSDGVAGVLLARRSVANQLNLPVLGRYIDFQTVGVPPEIMGVGPAYAIPKVLEATGLQVQDIDIFEINEAFAAQALYCIHKLGIDLNKVNPRGGAIALGHPLGCTGARQVATILRELKKDQIGVVSMCIGTGMGAAAIFIKE
For B5, the subcellular distribution result in the test with pex8Δ cells was “mislocalization”.

B6: Cta1p: protein mislocalized to the cytosol in pex8Δ cells in a previous study (protein, UniProt P15202 2-515, looked up)
Peroxisomal catalase A: SKLGQEKNEVNYSDVREDRVVTNSTGNPINEPFVTQRIGEHGPLLLQDYNLIDSLAHFNRENIPQRNPHAHGSGAFGYFEVTDDITDICGSAMFSKIGKRTKCLTRFSTVGGDKGSADTVRDPRGFATKFYTEEGNLDWVYNNTPVFFIRDPSKFPHFIHTQKRNPQTNLRDADMFWDFLTTPENQVAIHQVMILFSDRGTPANYRSMHGYSGHTYKWSNKNGDWHYVQVHIKTDQGIKNLTIEEATKIAGSNPDYCQQDLFEAIQNGNYPSWTVYIQTMTERDAKKLPFSVFDLTKVWPQGQFPLRRVGKIVLNENPLNFFAQVEQAAFAPSTTVPYQEASADPVLQARLFSYADAHRYRLGPNFHQIPVNCPYASKFFNPAIRDGPMNVNGNFGSEPTYLANDKSYTYIQQDRPIQQHQEVWNGPAIPYHWATSPGDVDFVQARNLYRVLGKQPGQQKNLAYNIGIHVEGACPQIQQRVYDMFARVDKGLSEAIKKVAEAKHASELSSNSKF
As for B6, the subcellular distribution entry in the test with pex8Δ cells is “mislocalization”.
